In patent publication US20160376343A1 (NATIONAL INSTITUTE FOR BIOTECHNOLOGY IN THE NEGEV, published 2016):
Positions count from the first letter of the chain named. Names may count otherwise.

B1: V3M V268A (Fc fusion)
chain: LRLLDHRAPVCSQPGLNCTVKNSTCLDDSWIHPRNLTPSSPKDLQIQLHFAHTQQGDLFPVAHIEWTLQTDASILYLEGAELSVLQLNTNERLCVRFEFLSKLRHHHKRWRFTFSHFVVDPGQEYEVTVHHLPKPIPDGDPNHQSKNFLVPDCEDARMKVTTPCMSSGSLWDPNITVETLEAHQLRVSFTLWNESTHYQILLTSFPHMENHSCFEHMHHIPAPRPEEFHQRSNVTLTLRNLKWCCRHQVQIQPFFSSCLNDCLRHSATVSCPEMPDTPEPIPDYMPLW
notes: Expressed in mammalian cells; also called V3 V268A; not shown: human IgG1 engineered Fc from the mammalian expression vector
B2: hIL17RA-ECD variant V3 (Fc fusion)
chain: B1 chain with A267V
notes: also called hIL-17R-V3; hIL17R-V3; not shown: human IgG1 engineered Fc (reduced ADCC/CDC) from the expression vector
B3: V3 P10L (Fc fusion)
chain: B1 chain with P9L, A267V
notes: Expressed in mammalian cells; not shown: human IgG1 engineered Fc from the mammalian expression vector
B4: V10 V60F (Fc fusion)
chain: B1 chain with D155H, A156P, W243G
notes: as for B3
B5: V3 K109R (Fc fusion)
chain: B1 chain with K108R, A267V
notes: as for B3
B6: V3 W244G (Fc fusion)
chain: B1 chain with W243G, A267V
notes: as for B3
B7: hIL17RA-ECD variant V10 (Fc fusion)
chain: B1 chain with F59V, D155H, A156P, W243G
notes: also called V10M; not shown: human IgG1 engineered Fc (reduced ADCC/CDC) from the expression vector
B8: V10 K109R (Fc fusion)
chain: B1 chain with F59V, K108R, D155H, A156P, W243G
notes: as for B3
B9: V1 expressed in E. coli (Trx-6xHis-tagged) (receptor)
chain: B1 chain with P9L, P14E, D43N, F59L, G122D, R239S, W243G
notes: Tested as cleared E. coli lysate; not shown: N-terminal thioredoxin (Trx)-6xHistidine tag of pET32
B10: V17 expressed in E. coli (Trx-6xHis-tagged) (receptor)
chain: B1 chain with P9L, F59L, K102E, K108R, W243G
notes: as for B9
B11: V7 expressed in E. coli (Trx-6xHis-tagged) (receptor)
chain: B1 chain with P9L, F59V, G122D, W243G
notes: as for B9
B12: V14 expressed in E. coli (Trx-6xHis-tagged) (receptor)
chain: B1 chain with P9L, L44V, Q55H, G122D, G139R, W243G, Q248H, A267V
notes: as for B9
B13: V8 expressed in E. coli (Trx-6xHis-tagged) (receptor)
chain: B1 chain with P9L, P14E, G122D, W243G
notes: as for B9
B14: V12 expressed in E. coli (Trx-6xHis-tagged) (receptor)
chain: B1 chain with K108R, H116R, G122D, D155H, A156P, W243G
notes: as for B9
B15: V18 expressed in E. coli (Trx-6xHis-tagged) (receptor)
chain: B1 chain with P9L, N88D, K108R, W243G
notes: as for B9
B16: V16 expressed in E. coli (Trx-6xHis-tagged) (receptor)
chain: B1 chain with P14E, G122D, W243G
notes: as for B9
B17: V13 expressed in E. coli (Trx-6xHis-tagged) (receptor)
chain: B1 chain with P9L, R96K, K108R, G122D, N193D
notes: as for B9
B18: V11 expressed in E. coli (Trx-6xHis-tagged) (receptor)
chain: B1 chain with P9L, P14E, G122D, Q123R, D155H, A156P, W243G
notes: as for B9
B19: V5 expressed in E. coli (Trx-6xHis-tagged) (receptor)
chain: B1 chain with P9L, D43N, F59L, R96K, G122D, D155H, W243G
notes: as for B9
B20: V20 expressed in E. coli (Trx-6xHis-tagged) (receptor)
chain: B1 chain with P14E, L44V, F59V, K108R, G122D, Q123R, D155H, A156P, W243G
notes: as for B9
B21: V21 expressed in E. coli (Trx-6xHis-tagged) (receptor)
chain: B1 chain with P9L, F59L, D155H, A156P, E181K, T203I, W243G
notes: as for B9
B22: V19 expressed in E. coli (Trx-6xHis-tagged) (receptor)
chain: B1 chain with R7Q, P9L, P14E, L44I, F59L, K108R, G122D, D155H, W243G
notes: as for B9
B23: V4 expressed in E. coli (Trx-6xHis-tagged) (receptor)
chain: B1 chain with P9L, L44I, F59L, L68P, K108R, G122D, W243G
notes: as for B9
B24: V15 expressed in E. coli (Trx-6xHis-tagged) (receptor)
chain: B1 chain with P9L, L44V, F99I, K108R, D155H, W243G, A267V
notes: as for B9
B25: V6 expressed in E. coli (Trx-6xHis-tagged) (receptor)
chain: B1 chain with P9L, P14E, F59L, D155H, W243G
notes: as for B9
B26: V9 expressed in E. coli (Trx-6xHis-tagged) (receptor)
chain: B1 chain with P14E, D43N, F59L, R96K, G122D, D155H, W243G
notes: as for B9

molecular target: T1, hIL-17A (human, UniProt Q16552 24-155); assay: ELISA on captured hIL-17A
T1 construct: Bought protein
T1 sequence (Q16552 24-155 limits assumed): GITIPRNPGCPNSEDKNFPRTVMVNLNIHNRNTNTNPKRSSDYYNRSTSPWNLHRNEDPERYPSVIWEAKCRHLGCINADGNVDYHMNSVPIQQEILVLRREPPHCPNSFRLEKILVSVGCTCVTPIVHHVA
Experimental: (§1) ELISA plates (Griener Microlon 96W) were incubated with 100 μl of 0.5 μg/ml goat α-hIL-17A antibodies (R&D Systems) for 1 hour, washed with PBS supplemented with 0.05% Tween-80 (PBST) and 100 μl of 0.35 μg/ml hIL-17A (R&D Systems or ProSpec Tany TechnoGene Ltd.) were added to the plate for an additional 1 hour. The plates were then washed with PBST and blocked by incubation with 100 μl of PBS supplemented with 3% skim milk for 1 hour. Following blocking, the plates were washed and incubated with 100 μl of the cleared lysate, cell media or purified protein generated (described above) at appropriate dilutions and shaken for 1 hour. hIL-17RA (R&D Systems) was applied at a concentration of 6.25 μg/ml as a positive control, and PBS supplemented with 1% BSA as a negative control. Plates were then washed with PBST, incubated with 100 μl of 0.05 μg/ml goat α-hIL-17RA antibodies (R&D Systems) followed by a secondary peroxidase-conjugated streptavidin (Jackson, 1:10000 dilution). Finally, 100 μl of the horseradish peroxidase (HRP) chromogenic 3,3′,5,5′-tetramethylbenzidine (TMB) substrate solution (Dako) were added. The reaction was stopped by the addition of 1 M sulfuric acid and recorded at 450 nm using a Tecan Infinite M200 plate reader.

IL-17A binding relative to the WT [%]	Binder
80	B1
100	B2
85	B3
10	B4
45	B5
65	B6
100	B7
80	B8

molecular target: T1, hIL-17A; assay: ELISA on captured hIL-17A, cleared E. coli lysates

binding result	Binder
binds	B9
binds	B10
binds	B11
binds	B12
binds	B13
binds	B14
binds	B15
binds	B16
binds	B17
binds	B18
binds	B19
binds	B20
binds	B21
binds	B22
binds	B23
binds	B24

molecular target: T1, hIL-17A; assay: SPR (ProteOn XPR36), receptor immobilised, hIL-17A as analyte
Experimental: The affinity of hIL-17A binding to hIL17RA-ECD variants was determined by SPR measurements on ProteOn XPR36 (Bio-Rad) instrument. All samples were in HBST buffer (10 mM HEPES with 0.15 M NaCl, 3.4 mM EDTA and 0.005% Tween-20, pH 7.2). A GLC Chip was air initialized and activated with EDC/S-NHS and […] from each of the hIL17RA-ECD variants were diluted in Acetate buffer pH 5.5 and immobilized onto the chip. The measured binding levels for WT hIL17RA-ECD, V3 and V10 were ˜5300RU, 6700RU and 7400RU, respectively. Following blockage of the unbound sites on the chip with Ethanolamine, the chip was flushed with HBST buffer and rotated. The hIL-17A was run at 25 μl/min. for 300 sec at various concentrations (50, 25, 12.5, 6.25 and 3.125 nM) followed by a 10-min. dissociation step. Binding parameters were determined using Langmuir single binding site model using the Bio-Rad's proteOn Manager Software V2.1.2.05.

Fold increase in affinity (against WT hIL17RA-ECD) [fold]	Kd [nM]	koff [s⁻¹]	kon [M⁻¹ s⁻¹]	Binder
6	0.443	7.51e-05	170000	B2
4.2	0.624	0.000115	184000	B7

molecular target: T1, hIL-17A; assay: ELISA of cleared E. coli lysate on plate-captured hIL-17A, detected with biotinylated anti-hIL-17RA and streptavidin-HRP, OD 450 nm; concentration not given
Experimental: as §1

binding result	Binder
binds	B25
binds	B26
